As a reminder, the Kd is the free concentration of one partner at which half of the binding sites on the other are occupied at equilibrium, for simple one-to-one binding.

Here are results for ten molecules from article doi:10.1101/2021.08.19.457009 (bioRxiv, 2021).

Assay [1] has as its target T1, human 6His-14-3-3ζ (human, UniProt P63104 1-245).
T1 sequence (looked up): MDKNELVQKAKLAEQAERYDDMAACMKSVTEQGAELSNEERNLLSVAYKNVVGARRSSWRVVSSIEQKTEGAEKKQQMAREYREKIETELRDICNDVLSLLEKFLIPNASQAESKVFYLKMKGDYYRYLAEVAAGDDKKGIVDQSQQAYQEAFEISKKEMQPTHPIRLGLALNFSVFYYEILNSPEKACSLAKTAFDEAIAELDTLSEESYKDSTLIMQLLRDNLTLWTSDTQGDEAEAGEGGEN
The assay can be described thus: pull-down.

In assay [2] the target is T1, human 6His-14-3-3ζ. The assay can be described thus: ITC. Background: Isothermal titration calorimetry measures the heat released or taken up as one component is titrated into another.

Non-standard residues stand in square brackets, D forms with d. No end group written: not given here. pS = N[C@@H](COP(=O)(O)O)C(=O)O

In the assay with human 6His-14-3-3ζ [1], “SNAP-TM-HCN1CT reporter lacking the region containing peptide C (amino acids 850-880) (domain or fragment)” showed an amount pulled down relative to CT (598-910) of 0.61 fold.

“SNAP-TM-HCN1CT reporter also lacking the region containing peptide B (residues 790-820) (domain or fragment)”: the amount pulled down relative to CT (598-910) in the assay with human 6His-14-3-3ζ [1] was 0.23 fold.

The molecule “SNAP-TM-HCN1CT reporter lacking the distal 30 amino acid block with the TRIP8b-tripeptide binding site (domain or fragment)” showed an amount pulled down relative to CT (598-910) in the assay with human 6His-14-3-3ζ [1] of 1.18 fold.

B1: SNAP-TM-HCN1CT reporter truncated of residues 803-910 (domain or fragment, mouse, UniProt O88704 598-802, looked up)
chain: LNTGVFNNQENEILKQIVKHDREMVQAIPPINYPQMTALNCTSSTTTPTSRMRTQSPPVYTATSLSHSNLHSPSPSTQTPQPSAILSPCSYTTAVCSPPIQSPLATRTFHYASPTASQLSLMQQPQQQLPQSQVQQTQTQTQQQQQQQQQQQQQQQQQQQQQQQQQQQQQQQQQQQQQPQTPGSSTPKNEVHKSTQALHNTNLTK
As to B1, the “amount pulled down relative to CT_(598-910)” value in the assay with human 6His-14-3-3ζ [1] was 0.2 fold.

B2: SNAP-TM-HCN1CT reporter CT_(731-910; Δ804-814; Δ861-871) (domain or fragment, mouse, UniProt O88704 731-910, looked up)
chain: VQQTQTQTQQQQQQQQQQQQQQQQQQQQQQQQQQQQQQQQQQQQQPQTPGSSTPKNEVHKSTQALHNTNLTKEPHEVSTLISRPHPTVGESLASIPQPVAAVHSTGLQAGSRSTVPQRVPPNRGVPPAPPPPAAVQRESPSVLNTDPDAEKPRFASNL
On to B2, for which the “amount pulled down relative to CT_(731-910)” value in the assay with human 6His-14-3-3ζ [1] is 0.26 fold.

As for TLFRQM[pS]SGAI [HCN1 phospho-peptide C], binding with human 6His-14-3-3ζ [2] was characterised by a dissociation constant (Kd) of 15 µM.

The molecule SRMRTQ[pS]PPVY [HCN1 phospho-peptide A] gave a Kd with human 6His-14-3-3ζ [2] of 16 µM.

Consider VRPLSA[pS]QPSL [HCN1 phospho-peptide B], for which the Kd with human 6His-14-3-3ζ [2] worked out at 25 µM.

B3: SNAP-TM-HCN1CT reporter CT_(731-910) (domain or fragment, mouse, UniProt O88704 731-910, looked up)
chain: VQQTQTQTQQQQQQQQQQQQQQQQQQQQQQQQQQQQQQQQQQQQQPQTPGSSTPKNEVHKSTQALHNTNLTKEVRPLSASQPSLPHEVSTLISRPHPTVGESLASIPQPVAAVHSTGLQAGSRSTVPQRVTLFRQMSSGAIPPNRGVPPAPPPPAAVQRESPSVLNTDPDAEKPRFASNL
With B3, the “amount pulled down relative to CT_(598-910)” value with human 6His-14-3-3ζ [1] was determined as 1.39 fold.

B4: SNAP-TM-HCN1CT reporter CT_(731-910; S810A; S867A) (domain or fragment, mouse, UniProt O88704 731-910, looked up)
chain: VQQTQTQTQQQQQQQQQQQQQQQQQQQQQQQQQQQQQQQQQQQQQPQTPGSSTPKNEVHKSTQALHNTNLTKEVRPLSAAQPSLPHEVSTLISRPHPTVGESLASIPQPVAAVHSTGLQAGSRSTVPQRVTLFRQMASGAIPPNRGVPPAPPPPAAVQRESPSVLNTDPDAEKPRFASNL
As for B4, in the assay with human 6His-14-3-3ζ [1], the “amount pulled down relative to CT_(731-910)” value was found to be 0.33 fold.
